From patent US20250064890A1, “PROTEIN COMPOSITIONS FOR THE TREATMENT OF INFLAMMATORY DISEASES” (Unichem Laboratories Limited, priority 2021, published 2025)
Like-named read-outs stand apart in the source and are kept apart here.

What was measured:
[1] = test system: oral (buccal) mucosa cells (TR146); test: Annexin positive cell population against radiation damage; format: cell-based, human; details: for % Apoptotic cells: Annexin positive
Description: (§1) Oral buccal mucosal cells (TR146) were incubated overnight in 5% CO2 incubator at 37° C. for 24 h. […] After 24 h of treatment, cells were exposed to damage (5-FU 5 mM) for 1.25 h for chemotherapy induced inflammation and exposed to gamma radiation (3.5 kGy) using Cobalt 60 for radiation induced inflammation. After the exposure, the anti-apoptotic effect of SEQ ID NO 2 was determined by restoration of mitochondrial membrane depolarization by JC-1 staining and reduction in apoptotic cell populations (Annexin positive and subG0/G1 cells in cell cycle analysis).
To determine the reduction in apoptotic cell populations using annexin-v staining cells were gently harvested into pre-labeled sterile centrifuge tubes and centrifuged at 300×g for 5-7 min. Supernatant were discarded and the pellet was resuspended in 200 μl of fresh culture medium. 100 μl of cell suspension was transferred into pre-labeled sterile centrifuge tubes. 100 μl of Annexin-V reagent was added to each tube and incubated for 30 min at RT in dark. Cells stained for Annexin-V were then transferred into 96-well plates and acquired on flow cytometer (Guava technologies). Percentage of Annexin-V positive cells was calculated as follows:
={[% Annexin positive cells in 5-FU or radiation alone]−[% Annexin positive cells in (TI+5-FU) or (TI+radiation)]/% Annexin positive cells in 5-FU or radiation alone}*100

[2] = Body weight change in 5-FU induced OM hamsters; format: in vivo, golden Syrian hamsters; details: Day 4 to Day 12, with respect to Day 4
Description: In-vivo experiments conducted in healthy golden Syrian hamsters wherein animals were grouped as below:
To induce OM, animals were administered (except normal control) 5-Fluorouracil (5-FU) by intraperitoneal route at doses of 60 mg/kg & 40 mg/kg respectively on first two days. On Day 4, under anesthesia, with aim of enhancing OM, mechanical irritation of the oral mucosa were done using wire brush. Treatment was initiated from Day 4 to Day 12. For group 3 animals 100 μl of vehicle comprising of standard drug Dexamethasone at 0.1 mg was instilled in buccal cheek pouch. For group 4, 5 and 6 animals 100 μl of vehicle comprising of SEQ ID NO. 2 at 0.25 mg, 0.5 mg & 1 mg, respectively was instilled in buccal cheek pouch. At the end of treatment period, cheek pouch of the hamsters was exposed, Mucositis scoring was carried out and images were captured. The animals were then humanely sacrificed, cheek pouch/jugular mucosa were isolated and used for biomarker estimation and histopathological investigation by using ELISA method and Hematoxylin and Eosin (H&E) staining, respectively.
Body weight of each animal was recorded daily till the end of experiment. Percentage change in body weight of the animals was calculated by using formula with respect to Day 4.

[3] = test system: oral (buccal) mucosa cells (TR146); test: Restoration of mitochondrial membrane potential (JC-1) against 5-FU induced damage; format: cell-based, human; details: for MMP: mitochondrial membrane potential, red/green JC-1 fluorescence ratio
Description: as §1
After incubation, the supernatants were discarded and 100 μl of JC1-dye solution (prepared by diluting 1 mM DMSO stock into 10 μM in 1×PBS) was added to each well. The cells were then incubated with the dye in CO2 incubator at 37° C. for 15 min, after which the supernatant was removed, and the cells were washed twice with 1×PBS. 100 μl of 1×PBS was finally added to each well. Red fluorescence (excitation 550 nm, emission 600 nm) and green fluorescence (excitation 485 nm, emission 535 nm) were measured using Biotek Synergy HT plate reader. The mitochondrial membrane potential (Δψm) was calculated as the ratio of intensity of red fluorescence to intensity of green fluorescence.
The percentage increase/restoration in mitochondrial membrane potential (MMP) was calculated as: % Increase=[(R−X)/R]*100 • Where, X=Δψm corresponding to TI+5-FU treated cells or TI+radiation treated cells; R=Δψm corresponding to control cells (FU damaged or Radiation damaged alone)

[4] = test system: oral (buccal) mucosa cells (TR146); format: cell-based, human
Description: The protective effect of the recombinant lectin on survival of TR146 cells against 5-FU induced damage was determined using following calculations:
The viability of cells was determined as: % Cell viability=(100−% Cytotoxicity); • where, the percentage cytotoxicity corresponding to each treatment was calculated as: % Cytotoxicity=[(R−X)/R]*100, wherein X=Absorbance of cells treated with 5-FU or radiation damage/TI+5-FU, R=Absorbance of Control cells (Untreated) and Percentage protection was calculated as:
{(Absorbance of TI+5-FU or radiation)−(Absorbance of 5-FU or radiation alone)/(Absorbance of Untreated)−(Absorbance of 5-FU alone)}*100

NF-kB = test: Multiplex analysis, radiotherapy, TR146 cell lysates; format: cell-based, human
Description: Oral buccal mucosal cells (TR146) cells were incubated overnight at 37° C. in 5% CO2 incubator. […] The cells were then stimulated with 5-FU (10 mM) for another 24h for chemotherapy and with gamma radiation (3.5 kGy) using Cobalt 60 for radiotherapy. After 24 h, cell culture supernatants were collected from each well and stored at −20° C. till multiplex analysis. For NF-kB estimations, cell lysates were prepared. Levels of biomarkers were estimated using Magpix® multiplex machine. The cells treated with Amifostine (along with 5-FU or radiation) were considered as positive control (PC). Untreated cells (5-FU or radiation alone treated) were used as negative control (NC).
The percent modulation in each sample was determined as follows:
[{Concentration of biomarkers (pg/ml) in Control cells (5-FU or radiation alone treated)−Concentration of biomarkers (pg/ml) in SEQ ID NO: 2+5-FU or radiation treated cells)}/Concentration of biomarkers (pg/ml) in Control cells (5-FU or radiation alone treated)]*100

[5] = 0.01 μg/ml + Radiation (3.5 kGy)
[6] = 0.1 μg/ml + Radiation (3.5 kGy)

B1: SEQ ID NO 2: recombinant lectin, variant of the S. rolfsii lectin amino acid sequence (reported as Rec-2 in WO 2010/095143) (protein)
chain: TYKITVRVYQTNPDAFFHPVEKTVWKYANGGTWTITDDQHVLTMGGSGTSGTLRFHADNGESFTATFGVHNYKRWCDIVTNLAADETGMVINQQYYSQKNREEARERQLSNYQVKNAKGRNFQIVYTEAEGNDLHANLIIG
% Decrease in Apoptotic cells (with respect to radiation control) [1, 5]: −4.8%
% Apoptotic cells [1, 5]: 14.3%
% Decrease in Apoptotic cells (with respect to radiation control) [1, 6]: −7.3%
% Apoptotic cells [1, 6]: 14.7%
% Decrease in Apoptotic cells (with respect to radiation control) ([1]; 1 μg/ml + Radiation (3.5 kGy)): 56%
% Apoptotic cells ([1]; 1 μg/ml + Radiation (3.5 kGy)): 6%
% Decrease in Apoptotic cells (with respect to radiation control) ([1]; 10 μg/ml + Radiation (3.5 kGy)): 62.2%
% Apoptotic cells ([1]; 10 μg/ml + Radiation (3.5 kGy)): 5.1%
% Decrease in Apoptotic cells (with respect to radiation control) ([1]; 10 μg/ml + Radiation (3.5 kGy), listed as SEQ ID NO: 2): 62.6%
decrease of body weight ([2]; G4, 0.25 mg/Animal in buccal cheek pouch): 3.61%
decrease of body weight ([2]; G5, 0.5 mg/Animal in buccal cheek pouch): 4.36%
decrease of body weight ([2]; G6, 1 mg/Animal in buccal cheek pouch): 6.8%
% Increase in MMP (with respect to control) ([3]; 0.01 μg/ml + 5FU): about 67%
MMP ([3]; 0.01 μg/ml + 5FU): 14.1
% Increase in MMP (with respect to control) ([3]; 0.1 μg/ml + 5FU): 67.5%
MMP ([3]; 0.1 μg/ml + 5FU): 14.2
% Increase in MMP (with respect to control) ([3]; 1 μg/ml + 5FU): 81.5%
MMP ([3]; 1 μg/ml + 5FU): 15.4
% Increase in MMP (with respect to control) ([3]; 10 μg/ml + 5FU): 79.6%
MMP ([3]; 10 μg/ml + 5FU): 15.2
% Increase in MMP (with respect to control) ([3]; 25 μg/ml + 5FU): 104.8%
MMP ([3]; 25 μg/ml + 5FU): 17.3
MMP ([3]; 50 μg/ml + 5FU): 17.8
% Increase in MMP (with respect to control) ([3]; 100 μg/ml + 5FU): 106.2%
MMP ([3]; 100 μg/ml + 5FU): 17.5
% Protection [4, 5]: 2.5%
maximum cytoprotection ([4]; 0.01 μg/ml-25 μg/ml, radiation): 54.1%
% Protection [4, 6]: 14.1%
% Protection ([4]; 1 μg/ml + Radiation (3.5 kGy)): 47.4%
% Protection ([4]; 10 μg/ml + Radiation (3.5 kGy)): 54.1%
% Protection ([4]; 25 μg/ml + Radiation (3.5 kGy)): 8.9%
Percentage Inhibition NF-kB (NF-kB; [5]): 11.8%
Percentage Inhibition NF-kB (NF-kB; [6]): 9.9%
Percentage Inhibition NF-kB (NF-kB; 1 μg/ml + Radiation (3.5 kGy)): 9.9%
Percentage Inhibition NF-kB (NF-kB; 10 μg/ml + Radiation (3.5 kGy)): 4%
Percentage Inhibition NF-kB (NF-kB; 25 μg/ml + Radiation (3.5 kGy)): −4%
